From publication PMC5397363 (Molecular microbiology, 2017)
Square brackets hold non-standard residues; d marks the D form. Ends that are not written are not given here. 2Abz = Nc1ccccc1C(=O)O

Key:
Assay in all cases: fluorescence polarisation
[1] = target: Staphylococcus aureus Prp C34S (S. aureus, UniProt Q2FXS9 1-106, C34S)
[2] = target: T1, Staphylococcus aureus Prp S38A (S. aureus, UniProt Q2FXS9 1-106, S38A)
T1 sequence: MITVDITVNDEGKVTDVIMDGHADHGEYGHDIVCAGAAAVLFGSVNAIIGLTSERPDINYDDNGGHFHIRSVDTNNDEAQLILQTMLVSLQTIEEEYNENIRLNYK

[3] = target: T2, Staphylococcus aureus Prp H22A (S. aureus, UniProt Q2FXS9 1-106, H22A)
T2 sequence: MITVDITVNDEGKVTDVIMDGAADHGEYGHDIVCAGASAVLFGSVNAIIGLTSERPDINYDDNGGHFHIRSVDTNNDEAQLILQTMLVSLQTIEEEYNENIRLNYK

Measured: binding result

B1: 2-Abz-KLNLQFFASKK-Am, fluorescent L27 cleavage-motif peptide without quencher (peptide)
peptide: [2Abz]KLNLQFFASKK-NH2
modifications: N-terminus assumed
SMILES: CC(C)C[C@H](NC(=O)[C@H](CCCCN)NC(=O)c1ccccc1N)C(=O)N[C@@H](CC(N)=O)C(=O)N[C@@H](CC(C)C)C(=O)N[C@@H](CCC(N)=O)C(=O)N[C@@H](Cc1ccccc1)C(=O)N[C@@H](Cc1ccccc1)C(=O)N[C@@H](C)C(=O)N[C@@H](CO)C(=O)N[C@@H](CCCCN)C(=O)N[C@@H](CCCCN)C(N)=O
binds: all assays above
